Test results reported in US20260217779A1 (Chugai, published 2026).

T1: human CXCR3 (hCXCR3) on Ba/F3 transfectant cells (human, UniProt P49682 1-368)
T1 sequence: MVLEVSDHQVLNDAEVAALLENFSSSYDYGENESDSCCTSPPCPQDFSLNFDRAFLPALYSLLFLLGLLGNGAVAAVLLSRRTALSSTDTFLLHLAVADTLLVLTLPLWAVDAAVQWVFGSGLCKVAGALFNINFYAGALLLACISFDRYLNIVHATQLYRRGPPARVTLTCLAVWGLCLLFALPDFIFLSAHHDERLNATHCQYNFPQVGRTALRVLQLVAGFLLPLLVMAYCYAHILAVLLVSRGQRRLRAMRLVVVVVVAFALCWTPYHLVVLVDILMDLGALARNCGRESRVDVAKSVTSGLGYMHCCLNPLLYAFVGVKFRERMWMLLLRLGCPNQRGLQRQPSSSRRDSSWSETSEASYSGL

B1: hCXCL11.0041-G1T4k.one//VHn-G1T4h.one.H435R (Fc fusion)
chain 1: FDPMFKRGRCLCIGPGVKAVKVADIEKASIMYPSNNCDKIEVIITLKENKGQRCLNPKSKQARLIIKKVERKNFEPKSSDKTHTCPPCPAPELRRGPSVFLFPPKPKDTLMISRTPEVTCVVVDVSHEDPEVKFNWYVDGVEVHNAKTKPREEQYNSTYRVVSVLTVLHQDWLNGKEYKCKVSNKGLPSSIEKTISKAKGQPREPQVCTLPPSREEMTKNQVSLWCLVKGFYPSDIAVEWESNGQPENNYKTTPPVLDSDGSFFLYSKLTVDKSRWQEGNVFSCSVMHEALHNHYTQKSLSLSP
chain 2: EPKSSDKTHTCPPCPAPELRRGPSVFLFPPKPKDTLMISRTPEVTCVVVDVSHEDPEVKFNWYVDGVEVHNAKTKPREEQYNSTYRVVSVLTVLHQDWLNGKEYKCKVSNKGLPSSIEKTISKAKGQPREPQVYTLPPSRCEMTKNQVSLSCAVKGFYPSDIAVEWESNGQPENNYKTTPPVLDSDGSFFLVSKLTVDKSRWQEGNVFSCSVMHEALHNRYTQKSLSLSP
B2: hCXCL11.0048-G1T4k.one//VHn-G1T4h.one.H435R (Fc fusion)
chain 1: FLPMFKRGRCLCIGPGVKAVKVADIEKASIMYPSNNCDKIEVIITLKENKGQRCLNPKSKQARLIIKKVERKNFEPKSSDKTHTCPPCPAPELRRGPSVFLFPPKPKDTLMISRTPEVTCVVVDVSHEDPEVKFNWYVDGVEVHNAKTKPREEQYNSTYRVVSVLTVLHQDWLNGKEYKCKVSNKGLPSSIEKTISKAKGQPREPQVCTLPPSREEMTKNQVSLWCLVKGFYPSDIAVEWESNGQPENNYKTTPPVLDSDGSFFLYSKLTVDKSRWQEGNVFSCSVMHEALHNHYTQKSLSLSP
chain 2: EPKSSDKTHTCPPCPAPELRRGPSVFLFPPKPKDTLMISRTPEVTCVVVDVSHEDPEVKFNWYVDGVEVHNAKTKPREEQYNSTYRVVSVLTVLHQDWLNGKEYKCKVSNKGLPSSIEKTISKAKGQPREPQVYTLPPSRCEMTKNQVSLSCAVKGFYPSDIAVEWESNGQPENNYKTTPPVLDSDGSFFLVSKLTVDKSRWQEGNVFSCSVMHEALHNRYTQKSLSLSP
B3: hCXCL11.0047-G1T4k.one//VHn-G1T4h.one.H435R (Fc fusion)
chain 1: FKPMFKRGRCLCIGPGVKAVKVADIEKASIMYPSNNCDKIEVIITLKENKGQRCLNPKSKQARLIIKKVERKNFEPKSSDKTHTCPPCPAPELRRGPSVFLFPPKPKDTLMISRTPEVTCVVVDVSHEDPEVKFNWYVDGVEVHNAKTKPREEQYNSTYRVVSVLTVLHQDWLNGKEYKCKVSNKGLPSSIEKTISKAKGQPREPQVCTLPPSREEMTKNQVSLWCLVKGFYPSDIAVEWESNGQPENNYKTTPPVLDSDGSFFLYSKLTVDKSRWQEGNVFSCSVMHEALHNHYTQKSLSLSP
chain 2: EPKSSDKTHTCPPCPAPELRRGPSVFLFPPKPKDTLMISRTPEVTCVVVDVSHEDPEVKFNWYVDGVEVHNAKTKPREEQYNSTYRVVSVLTVLHQDWLNGKEYKCKVSNKGLPSSIEKTISKAKGQPREPQVYTLPPSRCEMTKNQVSLSCAVKGFYPSDIAVEWESNGQPENNYKTTPPVLDSDGSFFLVSKLTVDKSRWQEGNVFSCSVMHEALHNRYTQKSLSLSP
B4: hCXCL11.0042-G1T4k.one//VHn-G1T4h.one.H435R (Fc fusion)
chain 1: FEPMFKRGRCLCIGPGVKAVKVADIEKASIMYPSNNCDKIEVIITLKENKGQRCLNPKSKQARLIIKKVERKNFEPKSSDKTHTCPPCPAPELRRGPSVFLFPPKPKDTLMISRTPEVTCVVVDVSHEDPEVKFNWYVDGVEVHNAKTKPREEQYNSTYRVVSVLTVLHQDWLNGKEYKCKVSNKGLPSSIEKTISKAKGQPREPQVCTLPPSREEMTKNQVSLWCLVKGFYPSDIAVEWESNGQPENNYKTTPPVLDSDGSFFLYSKLTVDKSRWQEGNVFSCSVMHEALHNHYTQKSLSLSP
chain 2: EPKSSDKTHTCPPCPAPELRRGPSVFLFPPKPKDTLMISRTPEVTCVVVDVSHEDPEVKFNWYVDGVEVHNAKTKPREEQYNSTYRVVSVLTVLHQDWLNGKEYKCKVSNKGLPSSIEKTISKAKGQPREPQVYTLPPSRCEMTKNQVSLSCAVKGFYPSDIAVEWESNGQPENNYKTTPPVLDSDGSFFLVSKLTVDKSRWQEGNVFSCSVMHEALHNRYTQKSLSLSP
B5: hCXCL11.0044-G1T4k.one//VHn-G1T4h.one.H435R (Fc fusion)
chain 1: FGPMFKRGRCLCIGPGVKAVKVADIEKASIMYPSNNCDKIEVIITLKENKGQRCLNPKSKQARLIIKKVERKNFEPKSSDKTHTCPPCPAPELRRGPSVFLFPPKPKDTLMISRTPEVTCVVVDVSHEDPEVKFNWYVDGVEVHNAKTKPREEQYNSTYRVVSVLTVLHQDWLNGKEYKCKVSNKGLPSSIEKTISKAKGQPREPQVCTLPPSREEMTKNQVSLWCLVKGFYPSDIAVEWESNGQPENNYKTTPPVLDSDGSFFLYSKLTVDKSRWQEGNVFSCSVMHEALHNHYTQKSLSLSP
chain 2: EPKSSDKTHTCPPCPAPELRRGPSVFLFPPKPKDTLMISRTPEVTCVVVDVSHEDPEVKFNWYVDGVEVHNAKTKPREEQYNSTYRVVSVLTVLHQDWLNGKEYKCKVSNKGLPSSIEKTISKAKGQPREPQVYTLPPSRCEMTKNQVSLSCAVKGFYPSDIAVEWESNGQPENNYKTTPPVLDSDGSFFLVSKLTVDKSRWQEGNVFSCSVMHEALHNRYTQKSLSLSP
B6: hCXCL11.0046-G1T4k.one//VHn-G1T4h.one.H435R (Fc fusion)
chain 1: FIPMFKRGRCLCIGPGVKAVKVADIEKASIMYPSNNCDKIEVIITLKENKGQRCLNPKSKQARLIIKKVERKNFEPKSSDKTHTCPPCPAPELRRGPSVFLFPPKPKDTLMISRTPEVTCVVVDVSHEDPEVKFNWYVDGVEVHNAKTKPREEQYNSTYRVVSVLTVLHQDWLNGKEYKCKVSNKGLPSSIEKTISKAKGQPREPQVCTLPPSREEMTKNQVSLWCLVKGFYPSDIAVEWESNGQPENNYKTTPPVLDSDGSFFLYSKLTVDKSRWQEGNVFSCSVMHEALHNHYTQKSLSLSP
chain 2: EPKSSDKTHTCPPCPAPELRRGPSVFLFPPKPKDTLMISRTPEVTCVVVDVSHEDPEVKFNWYVDGVEVHNAKTKPREEQYNSTYRVVSVLTVLHQDWLNGKEYKCKVSNKGLPSSIEKTISKAKGQPREPQVYTLPPSRCEMTKNQVSLSCAVKGFYPSDIAVEWESNGQPENNYKTTPPVLDSDGSFFLVSKLTVDKSRWQEGNVFSCSVMHEALHNRYTQKSLSLSP
B7: hCXCL11.0049-G1T4k.one//VHn-G1T4h.one.H435R (Fc fusion)
chain 1: FMPMFKRGRCLCIGPGVKAVKVADIEKASIMYPSNNCDKIEVIITLKENKGQRCLNPKSKQARLIIKKVERKNFEPKSSDKTHTCPPCPAPELRRGPSVFLFPPKPKDTLMISRTPEVTCVVVDVSHEDPEVKFNWYVDGVEVHNAKTKPREEQYNSTYRVVSVLTVLHQDWLNGKEYKCKVSNKGLPSSIEKTISKAKGQPREPQVCTLPPSREEMTKNQVSLWCLVKGFYPSDIAVEWESNGQPENNYKTTPPVLDSDGSFFLYSKLTVDKSRWQEGNVFSCSVMHEALHNHYTQKSLSLSP
chain 2: EPKSSDKTHTCPPCPAPELRRGPSVFLFPPKPKDTLMISRTPEVTCVVVDVSHEDPEVKFNWYVDGVEVHNAKTKPREEQYNSTYRVVSVLTVLHQDWLNGKEYKCKVSNKGLPSSIEKTISKAKGQPREPQVYTLPPSRCEMTKNQVSLSCAVKGFYPSDIAVEWESNGQPENNYKTTPPVLDSDGSFFLVSKLTVDKSRWQEGNVFSCSVMHEALHNRYTQKSLSLSP
B8: hCXCL11.0045-G1T4k.one//VHn-G1T4h.one.H435R (Fc fusion)
chain 1: FHPMFKRGRCLCIGPGVKAVKVADIEKASIMYPSNNCDKIEVIITLKENKGQRCLNPKSKQARLIIKKVERKNFEPKSSDKTHTCPPCPAPELRRGPSVFLFPPKPKDTLMISRTPEVTCVVVDVSHEDPEVKFNWYVDGVEVHNAKTKPREEQYNSTYRVVSVLTVLHQDWLNGKEYKCKVSNKGLPSSIEKTISKAKGQPREPQVCTLPPSREEMTKNQVSLWCLVKGFYPSDIAVEWESNGQPENNYKTTPPVLDSDGSFFLYSKLTVDKSRWQEGNVFSCSVMHEALHNHYTQKSLSLSP
chain 2: EPKSSDKTHTCPPCPAPELRRGPSVFLFPPKPKDTLMISRTPEVTCVVVDVSHEDPEVKFNWYVDGVEVHNAKTKPREEQYNSTYRVVSVLTVLHQDWLNGKEYKCKVSNKGLPSSIEKTISKAKGQPREPQVYTLPPSRCEMTKNQVSLSCAVKGFYPSDIAVEWESNGQPENNYKTTPPVLDSDGSFFLVSKLTVDKSRWQEGNVFSCSVMHEALHNRYTQKSLSLSP

biological target: T1, human CXCR3 (hCXCR3) on Ba/F3 …; assay: cell-based or functional assay

Going from B1 to B2, the “Activity retention rate at 33 nM” value rises from 25% to 52%.

First: B3
Second: B4
The “Activity retention rate at 33 nM” value of the first is lower: 5% for the first, 61% for the second.

Going from B5 to B6, the “Activity retention rate at 33 nM” value falls from 68% to 10%.

First: B7
Second: B8
The “Activity retention rate at 33 nM” value of the first is higher: 66% for the first, 61% for the second.

Going from B1 to B2, the “Activity retention rate at 100 nM” value rises from 56% to 75%.

First: B3
Second: B4
The “Activity retention rate at 100 nM” value of the first is lower: 22% for the first, 67% for the second.

Compared with B5, B6 is lower in “Activity retention rate at 100 nM” value: 76% for the first, 36% for the second.

Going from B7 to B8, the “Activity retention rate at 100 nM” value falls from 90% to 75%.

Going from B1 to B2, the “Activity retention rate at 300 nM” value rises from 42% to 72%.

First: B3
Second: B4
The “Activity retention rate at 300 nM” value of the first is lower: 52% for the first, 58% for the second.

First: B5
Second: B6
The “Activity retention rate at 300 nM” value of the first is higher: 72% for the first, 65% for the second.

First: B7
Second: B8
The “Activity retention rate at 300 nM” value of the first is higher: 75% for the first, 67% for the second.

Compared with B1, B2 is higher in “Luminescence value at 33 nM” value: 1.92e+06 for the first, 3.97e+06 for the second.

First: B3
Second: B4
The “Luminescence value at 33 nM” value of the first is lower: 391000 for the first, 4.7e+06 for the second.

Going from B5 to B6, the “Luminescence value at 33 nM” value falls from 5.24e+06 to 760000.

First: B7
Second: B8
The “Luminescence value at 33 nM” value of the first is higher: 5.1e+06 for the first, 4.67e+06 for the second.

First: B1
Second: B2
The “Luminescence value at 100 nM” value of the first is lower: 9.37e+06 for the first, 1.25e+07 for the second.

First: B3
Second: B4
The “Luminescence value at 100 nM” value of the first is lower: 3.72e+06 for the first, 1.12e+07 for the second.

Going from B5 to B6, the “Luminescence value at 100 nM” value falls from 1.27e+07 to 6.04e+06.

Compared with B7, B8 is lower in “Luminescence value at 100 nM” value: 1.5e+07 for the first, 1.26e+07 for the second.

Compared with B1, B2 is higher in “Luminescence value at 300 nM” value: 5.16e+06 for the first, 8.95e+06 for the second.

Compared with B3, B4 is higher in “Luminescence value at 300 nM” value: 6.48e+06 for the first, 7.23e+06 for the second.

First: B5
Second: B6
The “Luminescence value at 300 nM” value of the first is higher: 8.9e+06 for the first, 8.05e+06 for the second.

Compared with B7, B8 is lower in “Luminescence value at 300 nM” value: 9.32e+06 for the first, 8.3e+06 for the second.
